Experiment: soluble on expression in E. coli; label from the status in PepcDB or PDB records

Sequence | soluble on expression in E. coli
MRGSHHHHHHTDPALRAIPQISQAPGVVQLVLNFLQELEQQGFTGDTATSYADRLTMSTDNSIYQLLPDAVVFPRSTADVALIARLAAQERYSSLIFTPRGGGTGTNGQALNQGIIVDMSRHMNRIIEINPEEGWVRVEAGVIKDQLNQYLKPFGYFFAPELSTSNRATLGGMINTDASGQGSLVYGKTSDHVLGVRAVLLGGDILDTQPLPVELAETLGKSNTTIGRIYNTVYQRCRQQRQLIIDNFPKLNRFLTGYDLRHVFNDEMTEFDLTRILTGSEGTLAFITEARLDITRLPKVRRLVNVKYDSFDSALRNAPFMVEARALSVETVDSKVLNLAREDIVWHSVSELITDVPDQEMLGLNIVEFAGDDEALIDERVNALCARLDELIASHQAGVIGWQVCRELAGVERIYAMRKKAVGLLGNAKGAAKPIPFAEDTCVPPEHLADYIAEFRALLDSHGLSYGMFGHVDAGVLHVRPALDMCDPQQEILMKQISDDVVALTAKYGGLLWGEHGKGFRAEYSPAFFGEELFAELRKVKAAFDPHNRLNPGKICPPEGLDAPMMKVDAVKRGTFDRQIPIAVRQQWRGAMECNGNGLCFNFDARSPMCPSMKITQNRIHSPKGRATLVREWLRLLADRGVDPLKLEQELPESGVSLRTLIARTRNSWHANKGEYDFSHEVKEAMSGCLACKACSTQCPIKIDVPEFRSRFLQLYHTRYLRPLRDHLVATVESYAPLMARAPKTFNFFINQPLVRKLSEKHIGMVDLPLLSVPSLQQQMVGHRSANMTLEQLESLNAEQKARTVLVVQDPFTSYYDAQVVADFVRLVEKLGFQPVLLPFSPNGKAQHIKGFLNRFAKTAKKTADFLNRMAKLGMPMVGVDPALVLCYRDEYKLALGEERGEFNVLLANEWLASALESQPVATVSGESWYFFGHCTEVTALPGAPAQWAAIFARFGAKLENVSVGCCGMAGTYGHEAKNHENSLGIYELSWHQAMQRLPRNRCLATGYSCRSQVKRVEGTGVRHPVQALLEIIKGLCGR | soluble
MSKTFKDYGTGSGKDVIADEKPFSILLMGVDTGSSERTSKWEGNSDSMILVTVNPKTKKTTMTSLERDILVKLSGSKTNDQTGYDAKLNAAYAAGGAKMAIMTVQDMLDIKIDKYVQINMEGLVQLVDAVGGITVTNHFDFPISIEEHEPEFTASVEPGTHKINGEQALVYSRMRYDDPDGDYGRQKRQREVISKVLKKILALDSVSKYRKILSAVSKNMQTNIEISSSTIPKLLGYSDALKSIRTYQLKGEGTTIDGGSYQLVTSKELLKAQNRIKGQLGLKKSTAENLKTTASLYENFYGGDTSIYDSSSSASDYSSSGNYSGSSSDYGSSSSYGSNSSSGSSSDYSGQNSYNQGNYQQPAAGTGIGNLEHHHHHH | soluble
MSLEYQWGFANISMNYLDWTRSTTHKSGDSSHKDDFAYIELEGGAGYSWGEMYGFFDLENPFNSKTAQPGDNQRYTFKTTGRYYLGDSGFNLYGHIYGTYSLPSAEGNDYSNFHEVNTLYGIGYNATVAGVWMKPFVALHYVDQTYYSGNNGYVVGWVAGYDFTAFDENFSITNWNELEFNRAERYAAGNGGRNGVNGALALWWTPIKQFTTGIQYRYAYNKLGEDFLQDGIVYSIKYNFEGHHHHHH | not soluble
MYNDVLFPGEDINKPISIAAANRFVNRIRGGMDLGYWRTHDFRRTLVTRLSEMNVEPHVTERMLGHELGGIMSVYNKHDWIEAQRKAYELHADKLFWHIRSISD | not soluble
MFDLEKVQTLNELEMLVYHYVLEHLHQIPQQTIRQLATSCHVSTSTILRFCNKMGYAGFSELKYAVKEEAKQTQTFENFYDATVHVDAFLKKLNQETYYEMLRPAIQMIVQARHVAFTGIGTSGILGSYGSRYFANLNINSYSIADPFTPIPKRGFENTLALILSVSGETNEMIKQMTDFKTAGAKVLSITNNQHSTIARLADYNISYYMPDERSPFADKSVNTTTQIPVIALIELLAHQASQLLKELDETPS | not soluble
SNAMATFMTEDFLLKNDIARTLYHKYAAPMPIYDFHCHLSPQEIADDRRFDNLGQIWLEGDHYKWRALRSAGVDESLITGKETSDYEKYMAWANTVPKTLGNPLYHWTHLELRRPFGITGTLFGPDTAESIWTQCNEKLATPAFSARGIMQQMNVRMVGTTDDPIDSLEYHRQIAADDSIDIEVAPSWRPDKVFKIELDGFVDYLRKLEAAADVSITRFDDLRQALTRRLDHFAACGCRASDHGIETLRFAPVPDDAQLDAILGKRLAGETLSELEIAQFTTAVLVWLGRQYAARGWVMQLHIGAIRNNNTRMFRLLGPDTGFDSIGDNNISWALSRLLDSMDVTNELPKTILYCLNPRDNEVLATMIGNFQGPGIAGKVQFGSGWWFNDQKDGMLRQLEQLSQMGLLSQFVGMLTDSRSFLSYTRHEYFRRILCNLLGQWAQDGEIPDDEAMLSRMVQDICFNNAQRYFTIK | soluble
MSLKGQNQHSVLRNFPVLGRIRYISEKIGPELRQYFFANDNEGKPFSRSDYKNIVLAGKYKSRMTSFGTGKDYLEGFYIQNTMFPLQATELHIDHTEFISTFLYHIENERLFSREEYRKSAQVDPFFLTDEHAVVLGSNLKHPFKIKRLVGQSGMSYGALGKNAITALSMGLAKAGTWMNTGEGGLSEYHLKGNGDIIYQIGPGLFGVRDHDGNFNRDMFINLAEHNNVRAFEIKLAQGAKTRGGHMEGNKVTEEIARIRNVKPYETINSPNRFDFIKNPTDLLNFVNHLQSIGQKPVGFKIVVSKVEEIEALVKTMIEIDTYPSFITVDGGEGGTGATFQELEDGVGLPLFTALPIVSSMLEKYGIRNKVKIFASGKLVTPDKIAIALGLGADLVNIARGMMISVGCIMSQQCHLNTCPVGVATTDPKKEKGLIVDEKQYRVTNYVTSLHEGLFNIAAAVGVHSPTEITSDHIIYRQLDGTTTSIQDYKLKLISEGHHHHHH | not soluble
GPGSMDRGYPRRREGGASFGGGGFGGVGGFSGGSGGPPAGGPRRRFRSDFDPEEYAPRRKLHGQRPVDFYSPAIRHVLTRLVPRSTPYSYHVAPHEYYTKDLVTASVTNYNASTALCTQWVNTSYHPDSKGGRIRTPLYALQWSPSGRRLLCSTGRGEFLLFNGQSFGVEVKTVAHEDNRPCRAIAWGRRHDLILSGDDAGKLKMWMPNFVFMSEVDTSHRAVREISWAPLELKFCTAGQDGSAKVWDTNTVGAHTATAGASDGNQAVLEEVKLEGHGGDVTTAHWHPYRALIATGSQDTQCRLWDPRTASRGSIAALHGHSQALTCVRWHPDGRTLLSASKDGTVKLWDIRKTQPEVKRFTGHTDAVDKVDWHPTVSDLFASTGADGSVMYWMVAEGDGTMTHGVEEVVHDAAMIEAAHEKFRDKPNPVHCVAWSPLGNILASSGHEVKYWTRNKPGALEEKERGVESDILDEQGHVMV | not soluble
MSLVRTALTIAGSDSGGGAGIEADLKTFTAFGVHGLVAITSVTAQNTQTVTAIHDIPPEVVSEQIRVVAEDIGVDAAKTGMLSNAEIIKAVAKTVKNYDFPLVVDPVMIAKSGAPLLREDAVDALIKYILPLATLVTPNRFEAEKLTGMEIRNVNDAKLAAKKIAEETGAKAVIVKGGHLEGKEAIDVLYHNGAYKLYRAPKVDGCTHGTGCSFSAAITANLAKGLSLEDAVSVAKEFITLGISTGHKIGHGHCPVNQSAWIEIPAEKWRIYEELTRAVREFERINPIKLIPEVGTNFVYALPFPYARTKEDVAGVKGRIVRVGNEVRAVGSVEFGASDHLARAILTFMRFYPKYRSAINVRYSEEIVELAKEQGFTVSFYDRREEPIEVKEKEGATIPWGIEVAVKRINKRPDVIYHLGDIGKEPMILIFGRNPREVLDKLRLLEGHHHHHH | soluble
MFVDREEELKALNEKLDSNNFEFIVIYGRRRIGKTKLALKSVENREHIYYLAVEGDNLKHFKRYASKVEPTIEYAKEDWEAYFNFLKDKIIIIDEFPNLIKENPNVLSLFQRIVDIHLKNTKTKLIILGSSISMMGEKVLSYKSPLYGRKTGVLKIKPLKFKHLKEFFPKAIWEELVEIYGFADGIPYYLEKVKLPFWDYLDKEIKRVDSFLRYEVDFLMKYEFEEPTTYKKILEAIAFGNHTLGEIKNYLGFKHSDLTPYLKNLIEVEFIERQTPITESVKSKKGRYYIKDNFIAFYFRYIFPNLSAIEEGIFDIEEIKADYNQYLGFVFEKVAKEFLIELNKMNKLPFKFLKIGRWWHRGEEIDLIALNDNDKKALFVEVKWKDLKDRDVKKIYRDLYRKSKLVGLDDYEKYYAIVGKKIESKENGDCLLFDLEDFSLEHHHHHH | soluble
MWSEYSLEVVDAVARNGSFSAAAQELHRVPSAVSYTVRQLEEWLAVPLFERRHRDVELTPAGVWFLQEGRSVIKKMQITRQQCQQIANGWRGQLSIAVDDIVKPARMRQMIVDFYRHFPDVELIVFQEVFNGVWDALADGRVELAIGATRSIPVGGRYAFRDMGMLSWDCVVASDHPLAKMEGPLSDDVLRNWPSLVREDTSRSLPKRTTWLLDNQKRVVVPDWESSATCLSAGLCVGMVPSHFARPWIDRGEWTALALENPFPDAACCLTWQQNDASPALNWMLDYLGDSDTLNREWLRAPERSAPARCLNDDNRQTGHPLPSGAQPDGGALR | not soluble
MNSRSTAEITDYLNEKITKKDALELFSLPIHAVGRIADEIRKVKCGDLVTFVNDTNINYTNICLSKCRFCAFYAREKGYVLSHEEILRKVGYAVKMGATQIMLQGGMNPDLGLEWFEELFRKIKARFSSVHIHSLSPPEIVFLAKLERSSIREVLDRLKAAGLDSLPGGGAEILVDSVRRKISPNKCSSDEWLRVMETAHSLNMPTTATMMFGHVESDGDIVEHLIKIRELQEKTGGFTAFIPWTFQPGNTELYAEIKRPVSPLRYLQVLAISRIVLNNFRNIQASWLTQGFEIATLSLFFGANDFGGTMLEENVVRATGKDFRPAKIEEIVKAVKAVGRPVALRDTYYNILEWF | not soluble
MFEKVRKIIAEQLGIEEDEITMESSFIDDLGADSLDIVELIMALEEEFDLEIPDSEAEKITTVGDVVEYIKNNS | not soluble
MAAECATQRAPGSVVELLGKSYPQDDHSNLTRKVLTRVGRNLHNQQHHPLWLIKERVKEHFYKQYVGRFGTPLFSVYDNLSPVVTTWQNFDSLLIPADHPSRKKGDNYYLNRTHMLRAHTSAHQWDLLHAGLDAFLVVGDVYRRDQIDSQHYPIFHQLEAVRLFSKHELFAGIKDGESLQLFEQSSRSAHKQETHTMEAVKLVEFDLKQTLTRLMAHLFGDELEIRWVDCYFPFTHPSFEMEINFHGEWLEVLGCGVMEQQLVNSAGAQDRIGWAFGLGLERLAMILYDIPDIRLFWCEDERFLKQFCVSNINQKVKFQPLSKYPAVINDISFWLPSENYAENDFYDLVRTIGGDLVEKVDLIDKFVHPKTHKTSHCYRITYRHMERTLSQREVRHIHQALQEAAVQLLGVEGRF | soluble
GPHMASAEEKLEKKLELDPNCKEPLQVLPPTVVDQIRLWQLELDRVITYEGSLYSDFETSQEYNLLSKYAQDIGVLLWKDDKKKKFFISKEGNSQVLDFAKRKLKKKQ | soluble
MGSDKIHHHHHHMSMPSIDIEPTPRTLRTLALFDLDHTLLDVDSDYLWGEYIVKHNLVDEAQYRTANQKFYNDYIEGRLDATEYNEFVAQFLSSLPMGRLHELREDYIKSEIEPHIRPKAMEVLCQHVEEGHDVVIISATNDFVVSAIAKRFGIEDGNVLSTPLEIKDKRYTGKLTDKPNFKEGKIYHLDKWIGKQQLAGIHFNKTYAYSDSKNDIPLLEWADVAICVSPDAALHAHALSHRWAVEDWSI | not soluble
VKTILFFILIFNSQYMSKRIGVAVVGLGSIGKTHVKALKDLEKETEFVKLVAVVDQIKAIAEKIGSEYGTPYYTTIDEVLRNSEVDVISIATPSYLHAPQAILAIEYGKHVIVEKPMATTLAGAREMVSRAERNEVKLGVIFQERYAPDIRRLKNDILKELGRIYLIESELKWYRDMKGYYKRDEIARSWRGMWNTEGGGVMTNQGIHTIDLMIWLNGEVEEVSGFVDNLTHDGIEVEDTAVAIMRYKNGALGTISQTVSMKPTTYQYRKIRVNGSNGFVEITDGSLSTVAIEGKIEESKSSVEYKKETIAQPGNLHKELLRDFLRALSEDNDFPINGKEGMKSLEVIKAVYLSSVNRQVVKLPLDVRIVV | soluble

From the DeepSol protein solubility set
